# According to patent publication US20250340643A1 (AstraZeneca / MedImmune, published 2025):
# T1: CTLA4 on the cells of the reporter gene bioassay (human, UniProt P16410 36-223)
# T1 sequence (looked up): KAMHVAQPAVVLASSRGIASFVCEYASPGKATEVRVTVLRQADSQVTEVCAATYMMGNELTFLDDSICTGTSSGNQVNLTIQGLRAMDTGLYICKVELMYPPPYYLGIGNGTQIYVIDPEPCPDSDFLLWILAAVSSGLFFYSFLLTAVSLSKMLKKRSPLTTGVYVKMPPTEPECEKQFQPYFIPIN
# B1: Tremelimumab, stressed starting material (low pH 2.5-3.0, 45° C., shaking) (antibody, human IgG2, kappa, V domains shown)
# VH: QVQLVESGGGVVQPGRSLRLSCAASGFTFSSYGMHWVRQAPGKGLEWVAVIWYDGSNKYYADSVKGRFTISRDNSKNTLYLQMNSLRAEDTAVYYCARDPRGATLYYYYYGMDVWGQGTTVTVSS
# VL: DIQMTQSPSSLSASVGDRVTITCRASQSINSYLDWYQQKPGKAPKLLIYAASSLQSGVPSRFSGSGSGTDFTLTISSLQPEDFATYYCQQYYSTPFTFGPGTKVEIKR
# B2: Tremelimumab, Prep SEC aggregate fraction (antibody, human IgG2, kappa, V domains shown)
# VH: B1 VH
# VL: B1 VL
# B3: Tremelimumab, Prep SEC monomer fraction (antibody, human IgG2, kappa, V domains shown)
# VH: B1 VH
# VL: B1 VL
# B4: Tremelimumab stressed at 40° C., 0 Months (fragment study) (antibody, human IgG2, kappa, V domains shown)
# VH: B1 VH
# VL: B1 VL
# B5: Tremelimumab stressed at 40° C., 2 Months (fragment study) (antibody, human IgG2, kappa, V domains shown)
# VH: B1 VH
# VL: B1 VL
# B6: Tremelimumab stressed at 40° C., 3 Months (fragment study) (antibody, human IgG2, kappa, V domains shown)
# VH: B1 VH
# VL: B1 VL
# B7: Heat-stressed Tremelimumab (40° C.), month 0 (oxidation study) (antibody, human IgG2, kappa, V domains shown)
# VH: B1 VH
# VL: B1 VL
# modifications: oxidation by peptide mapping: Trp-52 1.8%, Met-256 1.3%, Met-362 1.6%, Met-401 1.6%, Met-432 1.2%
# B8: Heat-stressed Tremelimumab (40° C.), month 3 (oxidation study) (antibody, human IgG2, kappa, V domains shown)
# VH: B1 VH
# VL: B1 VL
# modifications: oxidation by peptide mapping: Trp-52 4.5%, Met-256 2.5%, Met-362 3.1%, Met-401 4.3%, Met-432 2.7%
# B9: Heat-stressed Tremelimumab (40° C.), month 2 (oxidation study) (antibody, human IgG2, kappa, V domains shown)
# VH: B1 VH
# VL: B1 VL
# modifications: oxidation by peptide mapping: Trp-52 2.5%, Met-256 2.0%, Met-362 2.6%, Met-401 3.8%, Met-432 2.2%
# B10: Heat-stressed Tremelimumab (40° C.), month 1 (oxidation study) (antibody, human IgG2, kappa, V domains shown)
# VH: B1 VH
# VL: B1 VL
# modifications: oxidation by peptide mapping: Trp-52 1.6%, Met-256 1.4%, Met-362 2.1%, Met-401 2.4%, Met-432 1.5%
# B11: Tremelimumab incubated with 100 ppm H2O2 for 3 days (antibody, human IgG2, kappa)
# heavy: QVQLVESGGGVVQPGRSLRLSCAASGFTFSSYGMHWVRQAPGKGLEWVAVIWYDGSNKYYADSVKGRFTISRDNSKNTLYLQMNSLRAEDTAVYYCARDPRGATLYYYYYGMDVWGQGTTVTVSSASTKGPSVFPLAPCSRSTSESTAALGCLVKDYFPEPVTVSWNSGALTSGVHTFPAVLQSSGLYSLSSVVTVPSSNFGTQTYTCNVDHKPSNTKVDKTVERKCCVECPPCPAPPVAGPSVFLFPPKPKDTLMISRTPEVTCVVVDVSHEDPEVQFNWYVDGVEVHNAKTKPREEQFNSTFRVVSVLTVVHQDWLNGKEYKCKVSNKGLPAPIEKTISKTKGQPREPQVYTLPPSREEMTKNQVSLTCLVKGFYPSDIAVEWESNGQPENNYKTTPPMLDSDGSFFLYSKLTVDKSRWQQGNVFSCSVMHEALHNHYTQKSLSLSPGK
# light: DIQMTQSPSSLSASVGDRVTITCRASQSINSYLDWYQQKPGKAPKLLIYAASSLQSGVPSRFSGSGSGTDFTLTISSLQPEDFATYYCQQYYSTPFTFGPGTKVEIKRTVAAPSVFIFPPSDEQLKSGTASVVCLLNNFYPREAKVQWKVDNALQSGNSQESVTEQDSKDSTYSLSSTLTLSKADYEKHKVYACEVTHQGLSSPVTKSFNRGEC
# modifications: oxidation by peptide mapping: Met-256 68.5%, Met-362 26.5%, Met-401 55.2%, Met-432 42.1%
# B12: Tremelimumab incubated with 100 ppm H2O2 for 4 days (antibody, human IgG2, kappa)
# heavy: B11 heavy
# light: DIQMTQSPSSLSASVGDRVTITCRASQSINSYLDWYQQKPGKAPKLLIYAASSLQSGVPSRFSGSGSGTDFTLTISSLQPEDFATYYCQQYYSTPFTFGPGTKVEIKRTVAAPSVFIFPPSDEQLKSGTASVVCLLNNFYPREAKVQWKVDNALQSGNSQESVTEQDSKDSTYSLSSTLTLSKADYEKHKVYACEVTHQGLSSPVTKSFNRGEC
# modifications: oxidation by peptide mapping: Met-256 79.8%, Met-362 36.3%, Met-401 63.7%, Met-432 53.0%
# B13: Tremelimumab, cool white light about 2000 lux for 14 days, DP (2R vial, horizontal) (antibody, human IgG2, kappa)
# heavy: B11 heavy
# light: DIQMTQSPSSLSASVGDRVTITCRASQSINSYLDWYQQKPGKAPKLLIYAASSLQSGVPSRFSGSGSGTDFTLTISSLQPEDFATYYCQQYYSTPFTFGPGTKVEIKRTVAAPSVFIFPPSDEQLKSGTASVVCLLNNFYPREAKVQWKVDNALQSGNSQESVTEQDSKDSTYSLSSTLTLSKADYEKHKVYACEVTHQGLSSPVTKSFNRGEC
# modifications: oxidation by peptide mapping: Trp-52 6.4%, Met-256 7.8%, Met-362 2.5%, Met-401 2.7%, Met-432 5.4%
# notes: also called DP (2R vial, horizontal) 14
# B14: Tremelimumab, photo-stress study according to ICH guideline, Dark control (antibody, human IgG2, kappa)
# heavy: B11 heavy
# light: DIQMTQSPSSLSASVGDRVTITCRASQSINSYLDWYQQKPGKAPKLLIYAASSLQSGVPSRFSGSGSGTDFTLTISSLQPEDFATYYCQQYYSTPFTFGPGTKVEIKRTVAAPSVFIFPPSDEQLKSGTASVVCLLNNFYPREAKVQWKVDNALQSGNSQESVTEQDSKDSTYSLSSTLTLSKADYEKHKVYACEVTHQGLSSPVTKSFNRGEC
# modifications: oxidation by peptide mapping: Trp-52 3.3%, Met-256 2.8%, Met-362 1.3%, Met-401 1.3%, Met-432 0.6%
# B15: Tremelimumab, photo-stress study at 2000 lux, t = 0 control (antibody, human IgG2, kappa)
# heavy: B11 heavy
# light: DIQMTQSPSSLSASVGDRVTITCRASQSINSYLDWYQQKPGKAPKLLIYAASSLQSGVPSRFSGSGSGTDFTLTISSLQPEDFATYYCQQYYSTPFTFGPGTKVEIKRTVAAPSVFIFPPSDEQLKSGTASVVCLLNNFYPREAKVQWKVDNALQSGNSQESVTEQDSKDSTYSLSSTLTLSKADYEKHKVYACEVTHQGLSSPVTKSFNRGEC
# modifications: oxidation by peptide mapping: Trp-52 0.7%, Met-256 3.3%, Met-362 1.4%, Met-401 1.6%, Met-432 1.0%
# B16: Tremelimumab, cool white light about 2000 lux for 14 days, DP (2R vial vertical) (antibody, human IgG2, kappa)
# heavy: B11 heavy
# light: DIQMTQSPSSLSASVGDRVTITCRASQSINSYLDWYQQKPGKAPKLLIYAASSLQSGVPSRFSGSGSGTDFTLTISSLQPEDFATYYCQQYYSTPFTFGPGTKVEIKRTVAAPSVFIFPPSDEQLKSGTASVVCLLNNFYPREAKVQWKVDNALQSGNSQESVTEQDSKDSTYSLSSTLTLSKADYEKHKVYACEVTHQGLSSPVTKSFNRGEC
# modifications: oxidation by peptide mapping: Trp-52 5.4%, Met-256 7.1%, Met-362 2.2%, Met-401 2.5%, Met-432 4.7%
# B17: Tremelimumab, photo-stressed, DP 3x ICH (antibody, human IgG2, kappa)
# heavy: B11 heavy
# light: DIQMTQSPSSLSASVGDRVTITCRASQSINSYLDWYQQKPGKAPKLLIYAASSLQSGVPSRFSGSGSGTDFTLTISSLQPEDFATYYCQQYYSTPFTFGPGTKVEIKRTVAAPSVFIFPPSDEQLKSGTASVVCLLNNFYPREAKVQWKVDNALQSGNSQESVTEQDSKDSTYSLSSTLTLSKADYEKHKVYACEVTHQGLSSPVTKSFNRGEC
# modifications: oxidation by peptide mapping: Trp-52 36.7%, Met-256 41.9%, Met-362 12.8%, Met-401 15.8%, Met-432 34.6%
# B18: Tremelimumab, photo-stressed, DP 1x ICH (antibody, human IgG2, kappa)
# heavy: B11 heavy
# light: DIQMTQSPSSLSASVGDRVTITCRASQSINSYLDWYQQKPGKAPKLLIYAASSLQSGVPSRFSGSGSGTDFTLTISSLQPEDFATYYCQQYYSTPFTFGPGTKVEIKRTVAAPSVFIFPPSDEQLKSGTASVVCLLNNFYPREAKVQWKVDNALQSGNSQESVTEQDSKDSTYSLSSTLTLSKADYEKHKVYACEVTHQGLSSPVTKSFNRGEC
# modifications: oxidation by peptide mapping: Trp-52 10.9%, Met-256 12.1%, Met-362 3.8%, Met-401 4.1%, Met-432 11.9%
# Target: T1, CTLA4 on the cells of the reporter gene …
# Experiment: cell-based or functional assay
row,Relative Potency (%),Binder
1,91%,B1
2,73%,B2
3,98%,B3

# Target: T1, CTLA4 on the cells of the reporter gene …
# Experiment: cell-based or functional assay
# Remark: another data set of the same source
row,Relative Potency (%) (reporter gene assay),Binder
1,95%,B4
2,97%,B5
3,97%,B6

# Target: T1, CTLA4 on the cells of the reporter gene …
# Experiment: cell-based or functional assay
# Remark: another data set of the same source
row,Relative Potency (%),Binder
1,100%,B7
2,98%,B8
3,101%,B9
4,112%,B10

# Target: T1, CTLA4 on the cells of the reporter gene …
# Experiment: cell-based or functional assay
# Remark: another data set of the same source
row,Relative Potency (%),Binder
1,83%,B11
2,98%,B12

# Target: T1, CTLA4 on the cells of the reporter gene …
# Experiment: cell-based or functional assay
# Remark: another data set of the same source
row,Relative Potency (%),Binder
1,97%,B13
2,107%,B14
3,102%,B15
4,90%,B16
5,59%,B17
6,87%,B18

# Target: T2, recombinant FcRn (UniProt P55899 24-297; P61769 21-119, limits assumed)
# T2 construct: also called Neonatal Fc Receptor
# Experiment: SPR, recombinant FcRn immobilized on the sensor; relative to Reference Standard
# Source text: (§1) A surface plasmon resonance binding assay was used to measure FcRn binding. This method is based on the ability of the test sample to bind to recombinant FcRn that has been immobilized on an SPR sensor surface. A reference flow cell was created using the same standard amine coupling procedure without the addition of FcRn.
row,Relative FcRn Binding (%),Binder
1,28%,B11
2,24%,B12

# Target: T2, recombinant FcRn
# Experiment: as above
# Remark: another data set of the same source
# Source text: as §1
row,Relative FcRn Binding (%),Binder
1,92%,B13
2,91%,B14
3,98%,B15
4,94%,B16
5,41%,B17
6,78%,B18
